Experimental data taken from the DeepSol protein solubility set.

Experiment: soluble on expression in E. coli; label from the status in PepcDB or PDB records

Sequence	soluble on expression in E. coli
MSELHYLYGKPTGTADLRTVNSDFIVKEILPFSPSGEGEHHLVHIRKDGLNTVQVAEMLAKFAKVHPKEVTYAGQKDKNAITEQWFGIRIPGKETPAWIELNSDRLTVLSSSRHSKKLRIGALLGNRFILTLRNVTNVEDIISRIEKVSQIGVPNYFGEQRFGHDGKNLVLGRQMLAGKKVKDRNKRSMYLSAVRSHLFNTVVSYRLTHYGTRPLAGDCVMLAGSKSFFVTPEWDLVVLKRLIEKDIQLSAPLWGRGKMLPQGEAAEVETQAMADLTEDCYGLEHAGLEQERRPLLLEPQGLKHEQTSDGLVLEFILPAGCFATSLLRELVDYQDVKELQWQTTLTAETNVVTESNTAAANVSDNGESASLEHHHHHH	soluble
MGSDKIHHHHHHMAEIDFIGRYHNATKRDYVQRVVEYDKAECAATAKQWGFDYWDGDRRHGFGGMRYDGRWLPLAEDLVRHYGLKAGDKVLDIGCGKAFLLYEMTRACPGLTVAGLDISEYGINNAKEEVRPFLTLGNATRLPWPDRHFDLVISINTFHNLQIHELDQAVREMQRVSTGRGYICVESYRDESEKANLLYWQLTCESFHRPEGWRWVYDQAGYTGDHGFIYFQ	not soluble
MLGVRMSGSVLDEEAEKLMDYDYLLEKLYKKVPPKSGTSEYRIPEPQIIRIGSQTVIRNFREIAQALKRDPKLVARYLQKELATAASYEEESGQLILNVKVSRKVVNQFLQLFMKTYVRCPTCGSIDTKLLRQERAYMLKCEACGAEQPVKPI	soluble
MFALEVLALERRTALLLGASGLVGGELLKLLLQSDLYRCVTIFVRTPLPVEHEKLQQVVVDFARLESYERYFYVDDVFCCLGTTRKKAKTKQQFIQVDYEYTLRAAALAEKCRAKSFLTVSSVGANPCSPFFYQRVKGETEEALQRLSIPSLHIFRPSLLVGKRREFRLGEALGGWLLCRLPFLFVGKWKKYKPVDAHQLALAMFYRAASATSGVHIYECDELARIS	not soluble
MGSDKIHHHHHHMENFVRNSKLNIEKEIKRIEQQPIALLERIKQIIDVIQTSLTLLKRAVAEYQFQNPEEEIQFFKVWKPQISGLLMFYIRLYQIEKNRVGKSLSAQCKYLKMELENIQKSFLNNSFYDYYRAGQTELDNQYFIRENYDILSDVHCHLLDRDSSFTTLHDSSVAMILANSHLIEYVSDEIDSLSDKLHLKFTSIVDSKLLQWTDSKVALVEFIYAIYAGKCFNNGNTSLKDIAFCCEILFNIEIGDFYRIFLEIRNRKKSRTQFLDKLKDKIQKMMEELDR	not soluble
KRLILLDYDGTLVPFQKRPEDASPTPQLLDTLQKLTADPLNHVVINSGRDHFTLEKWLGALPISFAAEHGAFYKENGVWHKNVHAQEWSPGLLSILKLFVSKTPRSHLEVKETALAWHYRETDAWLGRLRAQQLVNSLISICLKQNLQIMQGNKVIEIKSPEFTKGSEVNRLLLATRYDFILAMGDDTTDDDMFKALPVTAVTVKIGTASESARYNLPVQTDTLPFLQRLTDKSVVKAALKSGLKGQLSSAIDFLKRIINH	not soluble
MKTLEKRMKALDKRIMKFGKSLEGRLDARLIESALDYIHYSERFLAFEILCTYIEDFDVRLTEQESREISFINKEFEIESTSD	not soluble
MRRNYSRVIDELRTDYGLNLVAIGQRLGTDPRTVGKWWQGKHNPNQESRKKLNRLYREVKETMMTQVNIFEEANDNTKQVMQVITTTNFHGQPLDIYGDIQEPLFLARAVAEMIDYTKTSQGYYDVQAMLRKVDEDEKLKGMALEGTTKNFRSGQKVWFLTEHGLYEVLMRSNKPKAKEFRKAVKNILKEIRLNGYYMQGELVQELAQPSTQKLPGISDLTYILNKLADLVDMDNLADISNGIDRVQQLVKLISL	not soluble
SKRRRCKGKNMTKNLLVELGLEELPAYVVTPSEKQLGEKMAAFLGENRLSYESIQTFSTPRRLAVRVLGLADQQTDLTEDFKGPSKKIALDADGNFSKAAQGFVRGKGLTVDDIEFREVKGEEYVYVTKHEAGKSAKEVLAGIPEVLASLTFPVSMHWANNSFEYIRPVHTLIVLLGDEALELDFLGIKSGRVSRGHRFLGHEVEITNADSYEEDLRTVYVIANSKERENMIREQIKAIEAEQGVQVQIEEGLLNEVLNLVEYPTTFMGGFDTKYLDVPEDVLVTSMETHQRYFVVRDLDGRLKPNFISVRNGNAEHLENVVRGNEKVLVARLEDGEFFWREDQKLKIEDLVAKLANVTFHEKIGSLSEHMARAGVIAASLAEKAGLTAEEKAAVARAAEIYKFDLLTGMVGEFDELQGIMGEKYALLAGEDEAVATAIREHYLPDSADGALPETKVGAILALADKLDTLLSFFSVGLIPSGSNDPYALRRATQGIVRILDAFGWHIPMDELIDSLYGLSFDSLSYDNQAEVIRFIKARVDKMMGSTPKDIKEAVLSGSNFV	not soluble
MYLYIETLKQRLDAINQLRVDRALAAMGPAFQQVYSLLPTLLHYHHPLMPGYLDGNVPKGICLYTPDETQRHYLNELELYRGMSVQDPPKGELPITGVYTMGSTSSVGQSCSSDLDIWVCHQSWLDSEERQLLQRKCSLLESWAASLGVEVSFFLIDENRFRHNESGSLGGEDCGSTQHILLLDEFYRTAVRLAGKRILWNMVPCDEEEHYDDYVMTLYAQGVLTPNEWLDLGGLSSLSAEEYFGASLWQLYKSIDSPYKAVLKTLLLEAYSWEYPNPRLLAKDIKQRLHDGEIVSFGLDPYCMMLERVTEYLTAIEDFTRLDLVRRCFYLKVCEKLSRERACVGWRREVLSQLVKEWEWDDARLAMLDNRANWKIDQVREAHNELLDAMMQSYRNLIRFARRNNLSVSASPQDIGVLTRKLYAAFEALPGKVTLVNPQISPDLSEPNLTFIYVPPGRANRSGWYLYNRAPNIESIISHQPLEYNRYLNKLVAWAWFNGLLTSRTRLYIKGNGVVDLPKLQEMVADVSHHFPLRLPAPTPKALYSPCEIRHLAIIVNLEYDPTAAFRNQVVHFDFRKLDVFSFGENQNCLVGSVDLLYRNSWNEVRTLHFNGEQSMIEALKTILGKMHQDAAPPDSVEVFCYSQHLRGLIRTRVQQLVSECIELRLSSTRQETGRFKALRVSGQTWGLFFERLNVSVQKLENAIEFYGAISHNKLHGLSVQVETNHVKLPAVVDGFASEGIIQFFFEETQDENGFNIYILDESNRVEVYHHCEGSKEELVRDVSRFYSSSHDRFTYGSSFINFNLPQFYQIVKVDGREQVIPFRTKSIGN	not soluble
MGSDKIHHHHHHMSPNNFDTDVCIVGGGPTGTLLAVLLGQKGHRVTILEKWPTFYERPRAVTFDHEIARILGYIGIDSENDEAIDYHSDSYDWKNAAGETLLEVDWTSMTDSGWRTRYWFYQPELEKRLRDLALTMDFVDIRCGFTAVGLSQDENSAIIHGIVTDTPENIPADAQREDIRAKYVIGADGANSFVRNSLGLEMNDLGYFFDWLILDLKPTQDIDYGTDHWQLCDPKRPTTIVPGGPGRRRWEFMALPGEDLKELASEESAWNLLEPWDVTPGKAILERSAVYRFQARWAQEWRSGRALIAGDAAHLMPPFAGEGMCAGLRDSLALAWRLDLVLSGKSDDALLDTYGEERREHVHYYIDFSMDLGNVICITDEDEARLRDERMIKELEAQDGVPVNTDVAHLGPGIWDKDSSHGGELAKQGIVEYQGRKARFDDAVGRGWAVLGLNTDPREVLDEDSLVALDAIGAIVESVGDATSAVLDVEGLYTRWLKEAGATFIITRPDFYVYSTAVDAEQLQTQIKQLSDLLHLNSVVGA	not soluble
MGSDKIHHHHHHMNPADNILWGNIIKVHGVKGEVLVQVFSDDLTDYETLESVFVEIKQKQIPFFLSTFNFATQKRCILSFEDVTTVEQAKPLVGADIYIPVSKMAEADESRLSYQAIIGFEVMDTIQGKLGVISNFFQKTGQDLLMMDYQDAEILIPVTEEIVHSVDVKTKQVITTLPEGLIEIYLNEDASEPDAD	not soluble
MEPLLSLKSVSKSYDDLNILDDIDIDIESGYFYTLLGPSGCGKTTILKLIAGFEYPDSGEVIYQNKPIGNLPPNKRKVNTVFQDYALFPHLNVYDNIAFGLKLKKLSKTEIDQKVTEALKLVKLSGYEKRNINEMSGGQKQRVAIARAIVNEPEILLLDESLSALDLKLRTEMQYELRELQSRLGITFIFVTHDQEEALALSDFLFVLKDGKIQQFGTPTDIYDEPVNRFVADFIGESNIVEGRMVRDYVVNIYGQDFECVDMGIPENKKVEVVIRPEDISLIKAEEGLFKATVDSMLFRGVHYEICCIDNKGYEWVIQTTKKAEVGSEVGLYFDPEAIHIMVPGETEEEFDKRIESYEEVDNA	not soluble
MPQTERQLRVWIEGATGRRIGDNFMDGLKDGVILCELINKLQPGSVQKVNDPVQNWHKLENIGNFLRAIKHYGVKPHDIFEANDLFENTNHTQVQSTLIALASQAKTK	soluble
MGSDKIHHHHHHMTQLAPDSSIINAQACLSLDEAYEACRKETAQWAKTFYLGTMLLPSIKRRAIWAIYVWCRRTDELMDSAEAQTRPVSELANRLDQWEERTRAMFAGQVLDGLDAVMADTLERFPQSIQPYLDMIEGQRMDLNQHRYATFQQLELYCYRVAGTVGLMTQHVMGLDPAYTTAPWSSSPETSDAAIALGIANQLTNILRDVGEDRGRGRIYIPQEDLDRFGYSEADLMAGRLNSAWKDLMAFQLERAREWFARSEAGVRWLSQDARWPVWASLRLYRGILDSIERLDYDVFNNRAYVSRWMKLVDLPLSYLMAQAR	not soluble
MLVSEMHGEVEAVKVGTEVQGRVLHWVYLYYYRNLLFDAGCPNTAQEVFEHFKGREIKAVLITHYHEDHIGAVNLFKEITDVYVPEESLEILRNPPDIPKYRKIGWGQPEKIEGVKVAKEVMKFDDVEVRMIKTPGHSFDHVSYLVDDKLFCGDLVINTAQMVCMREENLLKTIESIEKVLKYDFNYAYTGVGVASRDEVVEYLNYLKGLKEKAEMLYAEGKTIDEIVAACFPNPSQKAILMEFVSEKEWARENMVKSLLGLPRE	not soluble
MAHHHHHHMAKLLPPPFHGYIRKMFFPLRNAASASRKCCLHTHVQQKNGMMKTTPLISKRSYFTSLYDTKTEKTKLMNEMDDLYDHILTSNWNDSVHLVLNVSIWEGILNSIEDKVKLYEQDEDIMKKKKIINEIFDVLFILEDLRDHVNELLEQSSRASGLAGTHILASFKIENMNEHIEFLKTKYDELLLKYPLYKYQIDMVLGKGLALLRQKYNFEWRHMHNFFF	not soluble
MLRLLLLCWLCGVSFIGGAQELRVKDTASLTQALVQAQDGDTLVLDTAVYEGNFSVTRSIHIKGEAGATLDAQRQGSALTITAPKVIVEGLNIRHWGRDLYYHDAGILLLPGADEVLIKGNRFVGDGFGIYGEQLASPRIIENSISGNGAIYVLDRGDGIFLKHVTAPDVQQNHIIFVRDGVYLESVTDSKIHHNQFAKLQYGIHYMYTRGDEASQNQATSVDGGYALMNSQQIYLHHNRVSQARDFGILLNITNDSHVQANIATEVQHPQGSVELGNEGKGIFIYAAQNNRIEDNEFSQSDTGISMAMGGEANRLWHNRILGNQTQVKYVGEAQLEWSYQGQGNYWSEYRGWDTNGDGVGDIAHRPNDSLDKLFWLYPEAKLLMESPVVLLLRWVERQFQPTSISGVSDSFPLMRLITEGDGIAAALEHHHHHH	soluble
AEEELETPTPTQRGEAESRGDGLVDVMWEYKWENTGDAELYGPFTSAQMQTWVSEGYFPDGVYCRKLDPPGGQFYNSKRIDFDLYT	soluble
MARAIHVFRTPDRFVAGTVGQPGNRTFYLQAVHDSRVVSVVLEKQQVAVLAERIGALLFEVNRRFGTPVPPEPTEIDDLSPLIMPVDAEFRVGTMGLGWDSEAQSVVVELLAVTDAEFDASVVLDDTEEGPDAVRVFLTPESARQFATRSYRVISAGRPPCPLCDEPLDPEGHICARTNGYRRDVLLGSGDDPAG	soluble
